Consider three substances from article PMC4461315.

For this assay, the target named is human complement Factor H (human) (UniProt P08603). As to the kind of experiment: SPR. (Surface plasmon resonance follows binding to a sensor surface in real time, without labels.)
human complement Factor H (human), sequence (P08603 19-1231): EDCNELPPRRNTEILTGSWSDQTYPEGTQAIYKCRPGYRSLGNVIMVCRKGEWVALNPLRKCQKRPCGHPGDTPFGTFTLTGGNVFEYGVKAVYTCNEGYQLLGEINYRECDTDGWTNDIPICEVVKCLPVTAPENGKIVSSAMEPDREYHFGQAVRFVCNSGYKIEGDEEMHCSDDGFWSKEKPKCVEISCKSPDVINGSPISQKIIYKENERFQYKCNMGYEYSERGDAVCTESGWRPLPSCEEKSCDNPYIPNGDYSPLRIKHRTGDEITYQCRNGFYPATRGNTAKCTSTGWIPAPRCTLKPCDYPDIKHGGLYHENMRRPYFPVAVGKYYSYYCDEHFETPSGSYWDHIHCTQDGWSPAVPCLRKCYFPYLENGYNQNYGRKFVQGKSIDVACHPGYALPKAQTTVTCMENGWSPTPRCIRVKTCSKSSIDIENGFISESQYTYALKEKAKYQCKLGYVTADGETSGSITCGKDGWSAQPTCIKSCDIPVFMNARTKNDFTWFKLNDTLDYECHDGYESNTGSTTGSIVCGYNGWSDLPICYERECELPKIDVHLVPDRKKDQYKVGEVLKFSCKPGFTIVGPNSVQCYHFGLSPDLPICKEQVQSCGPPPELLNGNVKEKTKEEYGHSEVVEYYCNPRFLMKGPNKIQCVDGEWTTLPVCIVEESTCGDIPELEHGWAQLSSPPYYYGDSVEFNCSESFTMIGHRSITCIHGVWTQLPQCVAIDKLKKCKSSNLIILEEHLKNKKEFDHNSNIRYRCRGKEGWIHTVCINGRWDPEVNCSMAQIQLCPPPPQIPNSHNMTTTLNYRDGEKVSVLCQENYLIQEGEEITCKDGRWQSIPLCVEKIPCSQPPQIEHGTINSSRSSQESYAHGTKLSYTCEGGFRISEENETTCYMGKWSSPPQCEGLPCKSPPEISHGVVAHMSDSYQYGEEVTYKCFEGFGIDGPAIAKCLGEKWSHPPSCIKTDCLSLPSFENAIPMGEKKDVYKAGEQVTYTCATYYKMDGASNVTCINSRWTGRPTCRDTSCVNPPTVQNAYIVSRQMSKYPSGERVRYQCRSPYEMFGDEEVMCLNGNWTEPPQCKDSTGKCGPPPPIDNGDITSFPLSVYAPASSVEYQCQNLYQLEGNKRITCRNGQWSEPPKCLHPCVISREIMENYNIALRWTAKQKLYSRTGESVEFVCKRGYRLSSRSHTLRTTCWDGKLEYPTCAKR
“FHbp ID 1 H248L mutant, soluble recombinant (from UniProt Q9JXV4 20-274) (natural protein)” yielded a response units at 100 nM FHbp (response units) of less than 2.
Substance “FHbp ID 1 E92K mutant, soluble recombinant (from UniProt Q9JXV4 20-274) (natural protein)” came in with a response units at 100 nM FHbp (response units) of less than 2.
To “FHbp ID 1 S223R mutant, soluble recombinant (from UniProt Q9JXV4 20-274) (natural protein)” belongs less than 2.
